Data as given in patent US8444970B2, “Compositions and methods for treating ocular diseases and conditions” (Lpath, Inc., priority 2006, dated 2013).

How the values were obtained:
[1] = test system: CNV lesions after laser-induced rupture of Bruch's membrane; experiment: Murine model of laser-induced CNV and scar formation (Example 4); type: in vivo, mouse; conditions: 0.5 ug
Experimental: Female C57BL6/J mice were subjected to laser-induced rupture of Bruch's membrane and administered either 0.5 μg of Sphingomab or an isotype-matched non-specific (NS) antibody diluted in 2 μl of physiological saline. Mice were sacrificed 14 and 28 days after laser rupture.
To induce CNV lesions, the pupils were dilated with ophthalmic tropicamide (0.5%) and phenylephrine (2.5%). A coverslip was placed on the eye. An Oculight GL 532 nm (Iridex Corporation, Mountain View, Calif.) coupled to a slit lamp set to deliver a 100 msec pulse at 150 mW with a 50 μm spot size was used to rupture Bruch's membrane in three quadrants of the right eye located approximately 50 μm from the optic disc at relative 9, 12 and 3 o'clock positions. The left eye served as an uninjured control in all cases. Any lesion not associated with a vapor bubble or lesions that became confluent were excluded from analysis. […]
To assess collagen deposition, the sclera-choroid-RPE complex was stained with Masson's Trichrome. […] Approximately 30 sections per lesion were evaluated. Quantitation of the volume of collagen deposition was calculated in the same manner as described for CNV lesion volume.
Captured digital images were evaluated morphometrically using ImageJ software (Research Services Branch, National Institutes of Health, Bethesda, Md.).

[2] = test system: Swiss 3T3 fibroblasts; experiment: S1P-stimulated fibroblast proliferation (3H-thymidine incorporation); type: cell-based; conditions: 1 ug/mL antibody, 12-24 hr
Experimental: FIG. 7. […] See Example 7, below, for experimental details. […] In these experiments, fibroblasts were serum-starved and then treated with 0, 0.1, 0.5, or 1 μM S1P+/−1 μg/mL SPHINGOMAB for 12-24 hr. […] SPHINGOMAB neutralized each of these S1P effects. SPHINGOMAB reduced perivascular fibrosis in vivo in a murine model of a permanent myocardial infarction (E).
S1P makes profound contributions to wound healing by activating fibroblast migration, proliferation and collagen production; SPHINGOMAB neutralizes these effects. Several studies using multiple types of fibroblasts confirm S1P's ability to promote wound healing: 1) S1P increased Swiss-3T3 fibroblast proliferation as measured by ^3H-thymidine incorporation using standard methods (FIG. 7A); 2) S1P promoted the migration of cardiac fibroblasts in a standard scratch wound healing assay. […] In each of these assays, SPHINGOMAB neutralized S1P's. It is anticipated that ocular fibroblasts would respond similarly to S1P and SPHINGOMAB.

[3] = test system: perivascular fibrosis; experiment: Permanent myocardial infarction model, cardiac scar formation (Masson's trichrome); type: in vivo, mouse; conditions: 25 mg/kg systemic, initiated 48 hrs after surgery
Experimental: Studies evaluated the efficacy of SPHINGOMAB to reduce cardiac scar formation after permanent myocardial infarction (MI) via ligation of the left descending coronary artery in mice. Systemic administration of 25 mg/kg SPHINGOMAB or saline was initiated 48 hrs after surgery. Antibody administration at 48 hr. was chosen to allow normal, reparative scar formation to occur during the early remodeling phase and permit beneficial, S1P-stimulated angiogenesis immediately after the MI. Two weeks after the infarct, mice were sacrificed and fibrosis was accessed by Masson's trichrome staining of the cardiac tissue. […] As a control for any non-specific wound-healing responses, sham animals underwent thoracotomy without coronary artery ligation (FIG. 7E).

[4] = test system: CNV lesions after laser rupture of Bruch's membrane; experiment: CNV animal model of AMD, murine vs humanized mAbs (Example 17); type: in vivo, mouse; conditions: 0.5 ug intravitreal Day 0 and Day 6, 14 days post laser
Experimental: The humanized antibody variants and the murine antibody were compared for their ability to inhibit neo-vascularization in the CNV animal model of AMD as shown in FIG. 13. […] Mice were sacrificed 14 days post laser surgery. Control mice were treated with aqueous buffer (PBS) or an isotype-matched non-specific antibody. Three of the humanized variants inhibited angiogenesis essentially equivalently to the murine antibody as assessed by measurement of CNV area. CNV lesion volumes are represented as means±SEM. […]
The morphometric and volumetric CNV lesions were measured as follows. […]
Captured digital images were evaluated morphometrically using ImageJ software (Research Services Branch, National Institutes of Health, Bethesda, Md.). Images were split into separate RGB channels for analysis of the red and green channels as follows: 1) a calibration for the specific objective and microscope was applied to set the pixel-to-length ratio; 2) a threshold was applied using the Otsu algorithm; 3) images will be made binary; 4) a region-of-interest (ROI) was outlined to include the entire lesion area; 5) a particle analysis was performed to quantify the pixel area above the threshold level within the ROI. […]

B1: LT1002: murine anti-S1P monoclonal antibody, IgG1 kappa, hybridoma clone 306D326.26 (antibody, listed as Mus sp., V domains shown)
VH: QAHLQQSDAELVKPGASVKISCKVSGFIFIDHTIHWMKQRPEQGLEWIGCISPRHDITKYNEMFRGKATLTADKSSTTAYIQVNSLTFEDSAVYFCARGGFYGSTIWFDFWGQGTTLTVS
VL: ETTVTQSPASLSMAIGEKVTIRCITTTDIDDDMNWFQQKPGEPPNLLISEGNILRPGVPSRFSSSGYGTDFLFTIENMLSEDVADYYCLQSDNLPFTFGSGTKLEIK
B1 was tested, and the choroidal neovascularization ([1]; 14 and 28 days after laser-induced rupture of Bruch's membrane) was “dramatically attenuates”, the “fibrosis associated with CNV lesion formation” value ([1]; 28 days after laser-induced rupture) was “significantly reduces” and the “S1P-stimulated Swiss 3T3 fibroblast proliferation” value [2] was “neutralized”. For the same molecule, the “perivascular fibrosis two weeks after infarct” value [3] was “almost complete abrogation” and the “Percent inhibition of lesion size” value [4] was “approximately 80%”.
